{
  "source": "the domain aggregation screens of Martell et al. (2025)",
  "data": [
    {"assay": "soluble fraction after stress (log2 fold change); higher = more stays soluble; pooled small domains, quantitative proteomics", "conditions": "stress: pH 4", "method_in_brief": "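Values are on a log2 scale, where higher means more of the domain stayed soluble after pH 4 stress. They are fold changes in the soluble amount of each domain from pooled custom libraries, measured by high-throughput quantitative proteomics. The fold change is taken to reflect aggregation propensity.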", "values": [
      {"sequence": "HMFQPEQISKLNELETLVLDFIIKSPDKVQKATIRSLATQLHVSTTTIVRMSTKLGFNGWSELKFFLKNQS", "soluble fraction (log2)": -0.65},
      {"sequence": "HMVFTEEERAEYREKMLDAGFDLLKQYGMTHMSVAKITEAAGIGVSTFYNFFSSKEEYVYEVLQYRRRK", "soluble fraction (log2)": -0.392},
      {"sequence": "HMNVKVYATIDGDNFKVSGLKPGSNVRVYSSNGSAVFEKKAGDSEMIIPAGAWTKGIYVISADDQSIKVT", "soluble fraction (log2)": -0.0844},
      {"sequence": "HMTVDHDERRSMILEAFMRLAAREGLHAVSLRGVAAEAGISLRLVQYYFETKARLMQSGLTALET", "soluble fraction (log2)": -0.501},
      {"sequence": "HMSIELEISADGNNYRVSGLSDGEDVRVYSVSGVQVFSGKAQGGEVVIPADNWNKGIYVISAGGSSVKVL", "soluble fraction (log2)": -0.312},
      {"sequence": "HMTKEEREKREKYEKLMKKAEELTAAKNHREVINVLGQAKAYATAAQLKEIEEKIKAATSEMNK", "soluble fraction (log2)": 0.257},
      {"sequence": "HMAPELRSDAQMRRLWALAKENGLDEVGFRAFISDATGREVESTKSLTATEAHRLIEELEAP", "soluble fraction (log2)": -0.758},
      {"sequence": "HMNPSVSSDERILLQKALGILSAEQKQIVMLHAVAGIKHREIAKLLDMPIATVLSKYSRAVNKLRHAMEA", "soluble fraction (log2)": -0.298},
      {"sequence": "HMKMLKAPIPGTIIEVKVNPGQTVNDGDVAVVLEAMKMESDIHFNSSGKVKKIHVNKGDSVQEGDDLIELE", "soluble fraction (log2)": -0.605},
      {"sequence": "HMKISDTITEKILTDNNFSMELAKKIGIQQGSLLSSIRRNRDSRILRLWEAVMFYKEQGYTEEEIFTDY", "soluble fraction (log2)": -0.864},
      {"sequence": "HMKELFETLPDVLDAKLLASALSISKAGAYQLLNRPDFPTLQVGGWKLVTKQKLALWMEQHTN", "soluble fraction (log2)": -0.511},
      {"sequence": "HMLLFNVADIVKRAKRVLNFKTDAELAAYLGVSRPTLSNWIARNGIDFPLLLEKLKEIDYNWLLVGKGKPE", "soluble fraction (log2)": -0.114},
      {"sequence": "HMGHLSNENAGRLLDRVLNDKIHAIMLGHLSKENNMPELAHEAVRMEITMGESRYKADDFPIYVA", "soluble fraction (log2)": -0.00322},
      {"sequence": "HMKIERKGDESYLSFVERATSALSDGLIDYQQWGRAVVGEDLYSEENTRRIAKFFAQFIQNLEND", "soluble fraction (log2)": -1.6},
      {"sequence": "HMYGHKLDSYESYVVSELRRWPFLSAPQIHDRLKEHFSDLPLVTPKTVFNFVNRLRLTHSLPKE", "soluble fraction (log2)": -0.215},
      {"sequence": "HMGPDGLFAKFREPETGKDLLITQNVFVEQVLIKGVLTRTLTDAEANTYRAPFVNPEKRFPIYVWPNELP", "soluble fraction (log2)": -0.0131},
      {"sequence": "HMVKSSVTEVISMINALPVTVKPEDKADIISARMAYDTLTEDEKALVTNYEILTAAETRFNELIATT", "soluble fraction (log2)": -0.101},
      {"sequence": "HMTNSTGWSKSGGTQVTIREGETIYNLSRRYGVPAKSIMEANGIADATAVRAGQRISIPTYSY", "soluble fraction (log2)": 0.22},
      {"sequence": "HMQIVPVDYSTFMQSIDDKTVDHVEIQSNQILYTVKDDHKKYKTGIMNDPTLAQRLMESGATFTQD", "soluble fraction (log2)": 0.185},
      {"sequence": "HMGTPEQSAQFEQVLEELKNVPGPVMKAMQRAQDIYGYLPIEIQSRIGQAFGVSLEEVYGIATFYSQFNL", "soluble fraction (log2)": -2.6},
      {"sequence": "HMTTYVNGSWSGWNGSTVVKLTDGSVWRQAEYHYEYHYAYRPQARLERDELFVEGMSRGVRV", "soluble fraction (log2)": -0.754},
      {"sequence": "HMLDQSYYETANEIISRYPLEEKSLIPIIQDIQATYRYLPPDLLDYVAKKIGITETKAYSVASFYENFSF", "soluble fraction (log2)": -1.09},
      {"sequence": "HMYTVVVGDSPSLIADKTGVPLKELTAMNPNLSDNFLPGKQLL", "soluble fraction (log2)": -0.076},
      {"sequence": "HMRAKPLILLDGREISAEELFSLDKNSIKSIEVLKDETALAQYGEKAKNGVVLVVTKSAAAS", "soluble fraction (log2)": 0.0982},
      {"sequence": "HMVNHVGITVSNLERSIQFYEALTGKKIANQDTIGGKRMAQTQGLADTLIKYANLHLDNLNIDLLEYVE", "soluble fraction (log2)": -0.448},
      {"sequence": "HMLQESDPEALRGIVKSVLVDHAAVAEEYRAGKQSVLQFLVGQGMKASKGAGNPGLIRDLMLEEL", "soluble fraction (log2)": -0.184},
      {"sequence": "HMKKDNLKKIKSIDEDIENELFKLGIYHFEQISIWSSKNAEWIENFLNLPNYVRANQWVEQAKILK", "soluble fraction (log2)": -0.885},
      {"sequence": "HMVRVSELAIEPRLVVEETATGFVGAVVRYANGLIELEDRHGAVRTFPLGPGYLVDGRPVSLVKPT", "soluble fraction (log2)": -0.35},
      {"sequence": "HMIVVLKHGVTEQQMRNLIAWFKDQGVDVHVSRGIYQTVLGLVGDTSDIDVDLLRMLDIVDAVKRIT", "soluble fraction (log2)": -0.785},
      {"sequence": "HMADKHVAAALLKLMDHLVGGRQYAFMKGRLTINKKVVLEATEVSAYRRGTGLSDADWQQRYE", "soluble fraction (log2)": -0.978},
      {"sequence": "HMDGTEVTTEPPGAQVEYEGKQFGPTPARIPGLVAGKSLHITLPGYLEVKPKIKAVPKDGEPLSFTLTAI", "soluble fraction (log2)": 0.224},
      {"sequence": "HMEKIDYLSIGHRLRAYRIASSLKAEDVAESLGISRAAVYRLEKGEIVKIETLDNLARLLNTSLSSLLG", "soluble fraction (log2)": -1.3},
      {"sequence": "HMNQDIIEIGNNIQKIRKKNGISQSVLAEKIDVAGNSIYRMEGATTVMGVDKLINIADALNTSPMDILPAR", "soluble fraction (log2)": 0.0428},
      {"sequence": "HMPKMISPAQIKAIGAKTNNIAKASGVEQAQVYQSAVAHLGINNKSTKELTSQEASKVIEYLSTL", "soluble fraction (log2)": 0.158},
      {"sequence": "HMITQQEFQQKLEALLSRAEAESFHIKKEEAESFFSGDELTGEQMKLVFDYLLSKKIIVEGYLK", "soluble fraction (log2)": 0.0629},
      {"sequence": "HMAIGTDPETGISVVADGTDFIWTRSGATSTIFLRLDSENSYILNVKQGDFEVIDYELGEGQENAINIDQS", "soluble fraction (log2)": -0.463},
      {"sequence": "HMDTPVYYYVNGNGVRMRKDASLESDILILLYKGTKVEYVDVKGEWIKVKYNNEIGYIRNDLLSAEMPD", "soluble fraction (log2)": -0.527},
      {"sequence": "HMTDIVPNLIGKSLKDAIQSVEKSNLKAIFDGHGIVVSQQPRPGSPIPARKIMKVTLSPDYR", "soluble fraction (log2)": 0.135}
    ]}
  ]
}
